Measurements: patent publication US20230287376, “IMMOBILIZED ENZYME COMPOSITIONS AND METHODS” (New England Biolabs, Inc., published 2023)

Legend:
T4 DNA ligase = molecular target: T1, T4 DNA ligase (Enterobacteria phage T4, UniProt P00970 P00970:1-487); experiment: ligation gel assay to SEQ 3 adaptor, 4 C; no activity after 60-100 C pretreatment; conditions: tags: untagged, NEB M0202
T1 sequence: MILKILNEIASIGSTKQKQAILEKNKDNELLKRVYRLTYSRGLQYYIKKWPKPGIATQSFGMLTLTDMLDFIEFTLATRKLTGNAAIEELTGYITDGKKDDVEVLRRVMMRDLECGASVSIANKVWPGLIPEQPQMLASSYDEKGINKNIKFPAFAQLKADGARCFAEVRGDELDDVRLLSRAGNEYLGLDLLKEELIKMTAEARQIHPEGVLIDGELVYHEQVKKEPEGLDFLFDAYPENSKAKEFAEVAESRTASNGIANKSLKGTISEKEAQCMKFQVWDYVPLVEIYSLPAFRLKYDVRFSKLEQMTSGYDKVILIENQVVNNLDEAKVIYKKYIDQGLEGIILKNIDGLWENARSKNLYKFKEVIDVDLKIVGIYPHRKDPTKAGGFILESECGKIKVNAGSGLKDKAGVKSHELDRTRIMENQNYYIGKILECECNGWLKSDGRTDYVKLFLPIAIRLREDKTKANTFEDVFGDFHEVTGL
Experimental: (§1) A FAM-labeled DNA duplex was formed by annealing synthetic oligomer, Gene32FAM-fw3′A, /56-FAMN/CA TGGTGATTACGATTCTTGCCCAGTATGTCAATACATCAGTAAAAATA (SEQ ID NO:1) and Gene32-rv5′p, /5Phos/AT TTTTACTGATGTATTGACATACTGGGCAAGAATCGTAATCAC CATG (SEQ ID NO:2).
(§2) For heat treatment, an aliquot of 15.83 μL from an enzyme master mixture was incubated at 4, 40, 60, 80, 90, 95 or 100° C. for 10 min, followed by addition of 9.17 μL of the DNA substrate mixture. All the ligation reactions were carried out at 4° C. overnight in a shaker. The samples were analyzed by electrophoresis on a 12% Tris-Glycine PAGE (Novex/Invitrogen) in 1×TAE Buffer for 2.5 hours at 25 mA (current). […] In contrast, HS-T4 DNA Ligase immobilized to BG-Agarose beads retained enzymatic activity after treatment in the same range of elevated temperature tested.

HS-T4 DNA ligase = molecular target: T2, HS-T4 DNA ligase (Enterobacteria phage T4, UniProt P00970 P00970:1-487); experiment: ligation gel assay to SEQ 3 adaptor; agarose-immobilized form retains activity after 60-100 C, soluble form does not; conditions: tags: SNAP-tag fusion, soluble or immobilized on BG-agarose
T2 chain: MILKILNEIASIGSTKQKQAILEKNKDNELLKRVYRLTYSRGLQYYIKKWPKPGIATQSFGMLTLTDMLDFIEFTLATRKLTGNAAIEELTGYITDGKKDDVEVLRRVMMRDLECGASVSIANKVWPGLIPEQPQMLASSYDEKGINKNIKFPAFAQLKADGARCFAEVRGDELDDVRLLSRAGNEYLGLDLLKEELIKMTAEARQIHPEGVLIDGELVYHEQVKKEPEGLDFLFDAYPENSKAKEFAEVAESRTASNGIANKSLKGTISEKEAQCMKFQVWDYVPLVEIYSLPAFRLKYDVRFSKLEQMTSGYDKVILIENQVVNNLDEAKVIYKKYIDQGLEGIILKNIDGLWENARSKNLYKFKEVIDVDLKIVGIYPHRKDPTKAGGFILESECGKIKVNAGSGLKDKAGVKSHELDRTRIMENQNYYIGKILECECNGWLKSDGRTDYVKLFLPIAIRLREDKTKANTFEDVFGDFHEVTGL
Experimental: as §1, §2

B1: Gene32 FAM duplex + TA adaptor (dsDNA)
DNA 1: CATGGTGATTACGATTCTTGCCCAGTATGTCAATACATCAGTAAAAATA
DNA 2: ATTTTTACTGATGTATTGACATACTGGGCAAGAATCGTAATCACCATG
modifications: 5'-phosphate on SEQ 2
T4 DNA ligase
  binding result: binds
HS-T4 DNA ligase
  binding result: binds
